Data taken from publication PMC5897841, “Development of a multipurpose scaffold for the display of peptide loops” (Protein Engineering, Design and Selection, 2017).
Each block holds one substance with its values, some of them ahead of it. Bridge positions count the residues as written; N and C are the ends. Ends that are not written are not given here.

Experiments:
CK2α kinase [1] = molecular target: T1, CK2α kinase (Homo sapiens, UniProt P68400); experiment: Fluorescence anisotropy direct binding of labeled CK2β(186–200) / RAD-CK2β
T1 construct: made in house; host or cells: E. coli BL21(DE3) with pUBS520; pBAT4 plasmid
T1 sequence (P68400 2-329): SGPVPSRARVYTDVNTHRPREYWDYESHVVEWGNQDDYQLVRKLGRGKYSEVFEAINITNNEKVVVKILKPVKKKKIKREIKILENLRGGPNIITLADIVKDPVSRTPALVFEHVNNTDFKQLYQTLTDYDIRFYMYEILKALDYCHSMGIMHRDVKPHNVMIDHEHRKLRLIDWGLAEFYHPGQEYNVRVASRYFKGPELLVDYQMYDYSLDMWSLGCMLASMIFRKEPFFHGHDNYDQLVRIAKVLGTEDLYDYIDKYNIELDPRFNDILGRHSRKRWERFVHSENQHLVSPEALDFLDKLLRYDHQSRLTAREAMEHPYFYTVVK
Method: About 100 μg peptide or protein in 500 μl sodium phosphate pH 6.75, 150 mM NaCl were labeled using 30-fold excess of the maleimide dye. The reactions was allowed to proceed for 1 h at room temperature and the Alexa Fluor 488-maleimide was removed by dialysis using 3-kDa molecular weight cut-off membrane against 10 mM Tris pH 8, 250 mM NaCl buffer. Protein and peptide samples were dialyzed for 3 h at room temperature and further purified by SEC using Superdex 75 GL 10/300 or Superdex peptide 10/300 GL column (GE Healthcare). Labeled peptides and proteins were concentrated to 100 μM, flash frozen in liquid nitrogen and stored at −80°C. The concentration of labeled peptide or proteins and degree of labeling was determined by measuring the absorbance at 280 and 495 nm.
(§1) A stock solution of Alexa Fluor 488-labeled peptide or display proteins was diluted in assay buffer to concentration of 20 nM. For both studies, 10 mM HEPES pH 7.4, 500 mM NaCl, 1 mM DTT, 0.05% P20 buffer from was used. […] FA was measured using PheraStar spectrofluorimeter plate reader (BMG Laboratories, Durham, NC) equipped with polarization filters (excitation 485 nm, emission 520 nm). Dissociation constants were calculated in pro Fit (Quantum Soft) by fitting experimental data to 1:1 binding model equation.

CK2α kinase [2] = molecular target: T1, CK2α kinase; experiment: SPR binding of CK2α to immobilized CK2β(186–200) / RAD-CK2β; conditions: Biacore T100, CM5 chip, ligand immobilized via free cysteine (linear peptide with C-terminal Gly-Cys), 25°C, 10 mM HEPES pH 7.4, 500 mM NaCl, 0.05% P20; data at 200 s post-injection; 1:1 steady-state model; ± from fitting; read-out: Equilibrium dissociation constant (KD), SPR steady-state
Method: SPR analyses were conducted using a Biacore T100 instrument (GE Healthcare) using CM5 sensor chips to which cRAD display proteins were immobilized through their unique cysteine residues. All coupling reagents were purchased from GE Healthcare: N-ethyl-N′-dimethylaminopropylcarbodiimide (EDC), 2-(2-pyridinyldithio) ethaneamine hydrochloride (PDEA), N-hydroxysuccinimide (NHS). All immobilizations were conducted at 25°C in running buffer 10 mM HEPES pH 7.4, 500 mM sodium chloride, 0.05% P20. Two CM5 sensor chips were used for the experiments. Peptides and RAD scaffold displaying the peptides were covalently immobilized via free cysteine on the sensor surface in cells 2 and 4, respectively. Cells 1 and 3 were derivatized with cysteine only and served as reference surfaces. Active and reference cells were created automatically using the immobilization surface preparation Wizard software. Immobilization levels for cells 2 and 4 ranged from 240 to 400 RU. […] The dissociation step was 180 s after which sensor surfaces were regenerated by injecting 3 M MgCl2 solution 3 times for 30 sat 60 μl/min. […] Aurora A binding to TPX-2 peptide and RAD-TPX-2 were analyzed also using kinetic data with heterogenous ligand model, with data presented in the Supplementary Material.

CK2α kinase [3] = molecular target: T1, CK2α kinase; experiment: ITC binding of CK2β(186–200) peptide / RAD display to CK2α; conditions: 25°C, 10 mM HEPES pH 7.4, 500 mM NaCl, 0.05% P20, 100 μM titrant into 10 μM CK2α, single titration, ± from fitting, RAD version is cRAD-CK2β(186–200), read-out: Equilibrium dissociation constant (KD), ITC
Method: (§2) All ITC experiments were performed on itc200 instrument (GE Healthcare). Prior to ITC titration, proteins and peptides were buffer exchanged into 10 mM HEPES pH 7.4, 500 mM NaCl, 0.05% P20 surfactant. ITC experiments with Aurora Awt kinase were performed in buffer containing 50 mM HEPES pH 7.4, 100 mM Mg(CH3COO)2, 100 mM NaCl, 1 mM ATP, 1 mM DTT, 0.01% v/v P20. […] In the Aurora AD274N and Aurora AWT binding assays, 50 μM solution of the titrant was injected into 5 μM kinase solution in the cell. […] Binding isotherms were fit by non-linear regression using the single-site model provided by ORIGIN software (Origin Lab). The stoichiometry of the interaction (N), equilibrium association constant (KA) and change of enthalpy (ΔH) were floated during the fitting.

CK2α kinase [4] = molecular target: T1, CK2α kinase; experiment: Affinities for CK2α across the experimental techniques (ITC, SPR, FA); format: binding; conditions: read-out: KD range between the different experimental techniques
Method: as §2, with “The stoichiometry of the interaction (N), equilibrium association constant (KA) and change of enthalpy (ΔH) were floated during the fitting.” left out
SPR analyses were conducted using a Biacore T100 instrument (GE Healthcare) using CM5 sensor chips to which cRAD display proteins were immobilized through their unique cysteine residues. […] Aurora A binding to TPX-2 peptide and RAD-TPX-2 were analyzed also using kinetic data with heterogenous ligand model, with data presented in the Supplementary Material.
as §1, with “nM.” for “nM. For both studies, 10 mM HEPES pH 7.4, 500 mM NaCl, 1 mM DTT, 0.05% P20 buffer from was used.”

CK2α = molecular target: CK2α; set-up: method as in Raaf et al., 2013; conditions: ref Raaf et al., 2013; cited from earlier work
CK2β/CK2α complex = system: CK2β/CK2α complex; set-up: method as in Laudet et al., 2007; conditions: read-out: IC50, inhibition of CK2β/CK2α complex formation; ref Laudet et al., 2007; cited from earlier work
[5] = molecular target: T2, wild-type Aurora A (Aurora AWT) kinase domain (Homo sapiens, UniProt O14965); experiment: Bio-Layer Interferometry direct binding of Aurora AWT to RAD-TPX2 mutants; conditions: double His-tagged RAD-TPX2 on Anti-Penta-HIS biosensors, 50 mM HEPES pH 7.4, 500 mM NaCl, 100 mM Mg(CH3COO)2, 0.5 mM ATP, 0.5 mM TCEP, 0.05% P20, 1:1 model, read-out: KD, BLI (Fig. 5a)
T2 construct: Aurora A (126-391)WT; made in house; host or cells: E. coli; plasmid pHAT4-LambdaPP
T2 sequence (O14965 126-391): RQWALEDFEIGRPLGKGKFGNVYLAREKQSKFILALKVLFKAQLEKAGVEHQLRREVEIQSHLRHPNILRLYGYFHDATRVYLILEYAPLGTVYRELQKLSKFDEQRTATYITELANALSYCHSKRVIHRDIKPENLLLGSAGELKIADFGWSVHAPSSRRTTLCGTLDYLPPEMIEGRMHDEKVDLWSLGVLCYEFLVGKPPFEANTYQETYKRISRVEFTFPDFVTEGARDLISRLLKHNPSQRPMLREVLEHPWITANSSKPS
Method: Octet RED96 (ForteBio) instrument was used for BLI analysis for double His-tagged RAD-TPX2/Aurora AWT interactions. Experiments were performed using Anti-Penta-HIS biosensors (ForteBio), which were regenerated with 10 mM glycine, pH 1.7. IMAC purified RAD proteins displaying wild-type sequence or alanine mutants of the TPX2 were buffer exchanged into 50 mM HEPES pH 7.4, 500 mM NaCl, 100 mM Mg(CH3COO)2, 0.5 mM ATP, 0.5 mM TCEP, 0.05% P20 (assay buffer). For binding assays pre-wet sensors were loaded with double His-tag labeled proteins at 1 μM in assay buffer. Dilution series (from 0 to 500 or 5000 nM) of Aurora AWT kinase construct without His-tag was prepared in the assay buffer and following experimental setup was used for each measurement cycle: regeneration 3 × 5 s, baseline monitoring 120 s, sample loading 200 s, baseline monitoring 150 s, ligand binding (association) 400 s and ligand dissociation 600 s, followed by regeneration and the next cycle. Regenerated Anti-Penta-HIS biosensors were used to perform double referencing. Data was processed using ForteBio Analysis 7.1 software and dissociation constants were calculated in pro Fit (Quantum Soft) by fitting experimental data to 1:1 binding model equation.

Aurora A = conditions: N-terminal segment of TPX2; ref Anderson et al., 2007; read-out: Affinity of TPX2 for Aurora A; cited from earlier work
Source text: Aurora A kinase plays an important role in the mitotic spindle assembly and is overexpressed in tumor cells ([Bischoff et al., 1998]). It is known to be dramatically activated by TPX2 protein, which binds to the Aurora A catalytic domain and translocates the kinase to the mitotic spindle during mitosis ([Bischoff et al., 1998]; [Kufer et al., 2002]; [Eyers et al., 2003]).

Substance: CK2β(186–200): synthetic linear peptide, residues 186–200 of human CK2β (RLYGFKIHPMAYQLQ; UniProt P67870 186-200, looked up, fragment)
Kd (CK2α kinase [1]; fluorescein-labeled linear peptide or Alexa Fluor 488-labeled cRAD-CK2β(186–200), 10 mM HEPES pH 7.4, 500 mM NaCl, 1 mM DTT, 0.05% P20, CK2α 2 nM–2 μM, 15 min room temperature, 1:1 model, ± from fitting, read-out: Equilibrium dissociation constant (KD), FA): 348 ± 27 nM | Kd (CK2α kinase [2]): 407 ± 50 nM | Kd (CK2α kinase [3]): 138 ± 13 nM | Kd (CK2α kinase [4]): 138 to 407 nM

Substance: GCRLYGFKIHGCG (disulfide 2-12 (inferred)) [Pc peptide]
Kd (CK2α): 559 nM | IC50 (CK2β/CK2α complex): 3000 nM

Kd [5]: 46 nM
Substance: RAD-TPX2(7–43): RAD scaffold (RadA ATPase domain) displaying residues 7–43 of human TPX2

Substance: TPX2: TPX2 protein, binds Aurora A through its N-terminal segment (LSYSYDAPSDFINFSSLDDEGDTQNIDSWFEEKANLENLKGGGCQM; left off: KSI, end not stated, cleaved)
Kd (Aurora A): 2.3 nM

Fold weaker affinity of labeled linear peptide vs RAD display, FA (CK2α kinase [1]; fluorescein-labeled linear CK2β peptide relative to RAD-CK2β display): ~ 3 times
Substance: fluorescein labeled linear CK2β peptide: fluorescein labeled linear CK2β(186–200) peptide (RLYGFKIHPMAYQLQ; also: fluorescein label, site not given here; UniProt P67870 186-200, looked up, fragment) [reference compound]
